Consider 1 molecule from paper PMC11697773.

This assay concerns the target human neonatal Fc receptor (FcRn) (human) (UniProt P55899). Put plainly: BLI; Octet; biotinylated human FcRn on streptavidin-coated biosensors, antibody soluble; equilibrium binding; PBSA pH 5.6; tips regenerated in PBSA pH 7.4.

B1: F5111 antibody, wild type (hIgG1 lambda) (antibody, V domains shown)
VH: QLQLQESGPGLVKPSQTLSLTCTVSGGSISSGGYYWSWIRQHPGKGLEWIGYIYYSGSTYYNPSLKSRVTISVDTSKNQFSLKLSSVTAADTAVYYCARTPTVTGDWFDPWGRGTLVTVSS
VL: NFMLTQPHSVSESPGKTVTISCTRSSGSIASNYVQWYQQRPGSSPTTVIYEDNQRPSGVPDRFSGSIDSSSNSASLTISGLKTEDEADYYCQSYDSSNVVFGGGTKLTVL
In turn, B1 came in with a Kd of 0.107 µM.
